Changes are numbered by the printed parent chain.
B1: 001-Hu5 (antibody, V domains shown)
VH: EVQLVESGGGLVQPGGSLRLSCAASGFAFSTYDLSWVRQAPGKGLEWVAYINNGGISTYYSDTVKGRFTISRDNAKNTLYLQMNSLRAEDTAVYYCVRGPFYGSANYFDYWGQGTLVTVSS
VL: DIQMTQSPSSLSASVGDRVTITCRTSESIYSNLPWYQQKPGKSPKLLVYDATKLAEGVPSRFSGSGSGTDYTLTISSLQPEDFATYYCQHFWVTPWTFGQGTKVEIK
notes: Humanized form of #001; also called VH1 + VL4
B2: 001-Hu2 (antibody, V domains shown)
VH: B1 VH with T78S
VL: B1 VL with V48I, Y71F
notes: Humanized form of #001; also called VH2 + VL2
B3: 001-Hu1 (antibody, V domains shown)
VH: B1 VH
VL: B1 VL with S43A, V48L
notes: Humanized form of #001; also called VH1 + VL1
B4: 001-Hu4 (antibody, V domains shown)
VH: B1 VH with T78S
VL: B1 VL
notes: Humanized form of #001; also called VH2 + VL4
B5: 001-Hu3 (antibody, V domains shown)
VH: B1 VH
VL: B1 VL with S43A, V48I
notes: Humanized form of #001; also called VH1 + VL3
B6: 219-Hu3 (antibody, V domains shown)
VH: QVQLVQSGAEVKKPGSSVKVSCKASGYSFTNYWMNWVRQAPGQGLEWMGMIHPSDTETRLNQNFKDRVTITADKSTSTAYMELSSLRSEDTAVYYCARGEGLGAARSVSMDYWGQGTLVTVSS
VL: DIQMTQSPSSLSASVGDRVTITCRASQDISNYLNWYQQKPDGTVKLLIYYTAILHSGVPSRFSGSGSGTDYSLTISSLQPEDFATYFCQQGNTLPWTFGQGTKVEIK
notes: also called VH5 + VL5
B7: 219-Hu1 (antibody, V domains shown)
VH: B6 VH with S16A, G44R, A72R, K74T, T76A
VL: B6 VL
notes: also called VH3 + VL5
B8: 219-Hu2 (antibody, V domains shown)
VH: B6 VH with R67K, V68A
VL: B6 VL
notes: also called VH4 + VL5
B9: 219-Hu5 (antibody, V domains shown)
VH: B6 VH with A72V
VL: B6 VL
notes: also called VH7 + VL5
B10: 219-Hu4 (antibody, V domains shown)
VH: B6 VH with R38K, M48I, R67K, V68A, I70L, A72V
VL: B6 VL
notes: also called VH6 + VL5

The binders below were run against T1, Human TNFR2-His (Sino 10417-H08H) (human, UniProt P20333 23-257) (assay: ELISA, human TNFR2-His coated; EC50 against 001-WT).
T1 construct: Bought protein; also called recombinant human TNFR2 protein; not shown: His tag
T1 sequence (looked up): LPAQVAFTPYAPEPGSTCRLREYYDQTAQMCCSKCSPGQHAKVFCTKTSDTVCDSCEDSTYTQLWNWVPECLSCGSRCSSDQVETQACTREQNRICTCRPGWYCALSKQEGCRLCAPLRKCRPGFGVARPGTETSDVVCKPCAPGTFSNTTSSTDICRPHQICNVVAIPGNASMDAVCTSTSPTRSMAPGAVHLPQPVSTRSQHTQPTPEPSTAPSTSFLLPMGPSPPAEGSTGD
Method: The test humanized antibody against TNFR2 (as described in Example 1, the antibody was comprised of variable regions linked to IgG-Fc; the WT chimeric antibody also adopted the IgG-Fc structure) was subjected to 3.33-fold gradient dilution, loaded with 100 μl/well, and incubated with shaking at room temperature for 1.5 hours. The plate was washed, and then a working solution of murine anti-human IgG Fc-HRP (diluted at 1:10000) was added, loaded with 100 μl/well, and incubated with shaking at room temperature for 1.0 hour. The plate was washed again, and then the substrate TMB of HRP was added to develop colour. A stop solution was added to stop the reaction, and then a microplate reader (MD 13) was used to read the absorbance value. The binding curve of an antibody was drawn with antibody concentration as the abscissa and corresponding OD value as the ordinate, and fitted with four parameters (GraphPad Prism9) to calculate the EC50 value. The smaller the EC50 value, the stronger the binding ability of an antibody to human/cynomolgus monkey TNFR2. The binding effect of a humanized antibody was normalized to its corresponding human-murine chimeric antibody WT (see SEQ ID NOs: 38-43 for the sequence). The higher the percentage value, the better the binding effect of the humanized antibody. The results of binding of an anti-TNFR2 antibody to a human TNFR2 protein are shown in FIG. 1 and Table 4, and the results of binding of an anti-TNFR2 antibody to cynomolgus monkey TNFR2 are shown in FIG. 2 and Table 4.

Binder | % Relative activity (WT antibody/test antibody)
B1 | 100%
B2 | 102%
B3 | 104%
B4 | 109%
B5 | 101%

What follows are binders tested against T2, human TNFR2 on the surface of CHO-TNFR2 cells (human, UniProt P20333 23-461) (assay: flow cytometry on CHO-TNFR2 cells; AUC against 001-WT).
T2 construct: whole, on cells
T2 sequence (looked up): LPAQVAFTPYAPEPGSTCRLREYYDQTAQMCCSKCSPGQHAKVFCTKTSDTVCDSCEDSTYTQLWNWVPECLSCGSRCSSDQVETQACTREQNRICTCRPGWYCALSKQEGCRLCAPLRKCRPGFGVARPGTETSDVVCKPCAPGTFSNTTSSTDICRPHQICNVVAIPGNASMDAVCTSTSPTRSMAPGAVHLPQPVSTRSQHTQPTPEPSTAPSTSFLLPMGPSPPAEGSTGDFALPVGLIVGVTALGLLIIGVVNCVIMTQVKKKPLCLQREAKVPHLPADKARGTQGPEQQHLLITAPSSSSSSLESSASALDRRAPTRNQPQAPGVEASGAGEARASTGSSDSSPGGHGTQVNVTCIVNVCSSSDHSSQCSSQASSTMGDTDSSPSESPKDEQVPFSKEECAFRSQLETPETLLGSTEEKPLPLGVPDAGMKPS
Method: The transfected full-length plasmid of human TNFR2 was purchased from Sino Biological (Cat #HG10417-UT, NCBI Ref Seq: NM_001066.2). The experiment was conducted at a cell density within 80%. The cell medium was discarded; the cells were rinsed with PBS, and digested with 1 ml trypsin for 2 minutes; the digestion was stopped with a Ham's F12 complete medium containing 10% FBS, and then a cell suspension was made. The cell suspension was counted, and then an appropriate amount of cell suspension was centrifuged at 350×g; the supernatant was discarded; a corresponding volume of blocking solution (10% FBS+PBS) at a density of 1×10⁷ cells/ml was added to resuspend the cells, and the mixture was incubated at 4° C. for 30 minutes. After the incubation, the mixture was centrifuged at 350×g to remove the supernatant, and the cells were resuspended in a staining buffer (2% FBS+PBS) to a density of 2×10⁶ cells/ml, and spread onto a 96-well plate, with 50 μl of cell suspension added to each well for later use. The antibody was diluted with PBS for 10-fold gradient dilution from the highest concentration of 20 μg/m (twice the concentration); the diluted antibody was added to the well containing 50 μl of cell suspension, and placed on a microplate shaker for shaking at 500 rpm for 1 minute, so that the antibody was fully mixed with the cells; the mixture was incubated at 4° C. for 1 h. After the incubation, the cells were washed twice with the staining buffer, with 100 μl per well, and centrifuged at 350-g for 5 minutes, and the supernatant was discarded. The PE goat anti-Human IgG Fc antibody (ebioscience, Cat #12-4998-82) was diluted 250-fold with the staining buffer, with a volume of 100 μl per well added to the washed cell wells; the mixture was mixed evenly, and stained at 4° C. for 30 minutes. After the staining, similarly, the cells were washed twice with the staining buffer; finally, the cells were resuspended in 200 μl of staining buffer; signals were detected by a flow cytometer (Thermo Attune NxT). The stronger the signal, the stronger the binding ability of an antibody to TNFR2. The binding curve of an antibody was drawn with antibody concentration as the abscissa and corresponding mean fluorescence intensity (MFI) fold as the ordinate, and fitted with four parameters (GraphPad Prism9) to calculate the EC50 value.

Binder | % Relative activity (Test antibody/WT antibody)
B1 | 87.8%
B2 | 88.2%
B3 | 93.4%
B4 | 92.2%
B5 | 87.8%

These binders were tested against T3, human TNFR2 (Novoprotein, Cat #C830) (human, UniProt P20333 23-257, limits assumed) (assay: competition ELISA, competitor human TNFα-Biotin; IC50 against 219-WT).
T3 construct: construct not described; also called human TNFR2 protein
T3 sequence (looked up): T1 sequence (looked up)
Method: 1 μg/ml human TNFR2 (Novoprotein, Cat #C830) was pre-coated with 100 μl/well […] in an ELISA plate. All the test TNFR2 antibodies were subjected to 2.5-fold gradient dilution from the highest concentration of 30 μg/ml; the diluted antibodies were mixed with 15 ng/ml human TNFα-Biotin (Acro Biosystem, Cat #TNA-H82E3) in equal volume, respectively; the resulting mixture was added to the ELISA plate at 100 μl/well, and incubated with shaking at room temperature for 2.0 hours. The plate was washed, and then a Streptavidin-HRP working solution (diluted at 1:10000) was added at 100 μl/well, and the mixture was incubated with shaking at room temperature for 40 minutes. The plate was washed again, and then the substrate TMB of HRP was added to develop colour. A stop solution was added to stop the reaction, and then a microplate reader (MD 13) was used to read the absorbance value. The inhibitory curve of an antibody was drawn with antibody concentration as the abscissa and corresponding OD value as the ordinate, and fitted with four parameters (GraphPad Prism9) to calculate the IC50 value. The smaller the IC50 value, the stronger the ability of an antibody to inhibit the binding of human TNFα to human TNFR2. The blocking effect of a humanized antibody was normalized to its corresponding human-murine chimeric antibody WT. The higher the percentage value, the better the inhibitory effect of the humanized antibody.

Binder | % Relative activity (WT antibody/test antibody)
B6 | 111%
B7 | 128%
B8 | 120%
B9 | 136%
B10 | 126%
